Measured values as given in paper PMC3785576.

Molecular target: Bovine dermal collagen type I (bovine) (UniProt P02453)
Assay: ELISA

UniProt P02453, sequence (P02453 162-1217, chain 1 of 2): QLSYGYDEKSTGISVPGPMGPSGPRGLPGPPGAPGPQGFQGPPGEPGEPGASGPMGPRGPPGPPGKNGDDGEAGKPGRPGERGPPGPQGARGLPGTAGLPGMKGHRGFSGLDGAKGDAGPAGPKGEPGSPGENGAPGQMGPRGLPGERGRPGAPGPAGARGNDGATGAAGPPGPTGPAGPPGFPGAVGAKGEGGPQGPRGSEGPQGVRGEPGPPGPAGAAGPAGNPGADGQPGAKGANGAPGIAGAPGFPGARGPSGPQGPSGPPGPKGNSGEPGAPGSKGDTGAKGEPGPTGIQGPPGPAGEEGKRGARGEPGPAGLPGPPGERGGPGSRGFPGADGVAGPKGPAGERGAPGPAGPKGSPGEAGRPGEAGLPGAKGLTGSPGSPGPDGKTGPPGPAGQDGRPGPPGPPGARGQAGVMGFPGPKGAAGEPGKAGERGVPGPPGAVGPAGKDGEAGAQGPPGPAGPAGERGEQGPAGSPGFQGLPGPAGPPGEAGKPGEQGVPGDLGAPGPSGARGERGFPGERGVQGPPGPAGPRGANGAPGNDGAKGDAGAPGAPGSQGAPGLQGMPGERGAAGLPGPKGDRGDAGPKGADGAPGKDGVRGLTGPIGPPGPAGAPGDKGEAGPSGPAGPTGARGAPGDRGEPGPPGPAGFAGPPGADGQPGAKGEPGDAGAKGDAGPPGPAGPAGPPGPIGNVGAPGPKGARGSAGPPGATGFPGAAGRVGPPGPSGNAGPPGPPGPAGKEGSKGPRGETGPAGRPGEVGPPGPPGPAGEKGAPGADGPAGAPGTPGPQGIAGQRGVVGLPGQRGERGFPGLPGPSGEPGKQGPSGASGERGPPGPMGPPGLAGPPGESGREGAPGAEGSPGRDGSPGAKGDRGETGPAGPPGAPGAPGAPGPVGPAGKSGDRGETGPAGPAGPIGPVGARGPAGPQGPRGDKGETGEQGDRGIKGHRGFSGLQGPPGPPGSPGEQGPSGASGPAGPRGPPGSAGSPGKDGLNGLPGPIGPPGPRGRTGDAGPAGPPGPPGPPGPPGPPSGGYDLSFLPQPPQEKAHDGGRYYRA
UniProt P02453, sequence (P02465 80-1117, chain 2 of 2, further chain): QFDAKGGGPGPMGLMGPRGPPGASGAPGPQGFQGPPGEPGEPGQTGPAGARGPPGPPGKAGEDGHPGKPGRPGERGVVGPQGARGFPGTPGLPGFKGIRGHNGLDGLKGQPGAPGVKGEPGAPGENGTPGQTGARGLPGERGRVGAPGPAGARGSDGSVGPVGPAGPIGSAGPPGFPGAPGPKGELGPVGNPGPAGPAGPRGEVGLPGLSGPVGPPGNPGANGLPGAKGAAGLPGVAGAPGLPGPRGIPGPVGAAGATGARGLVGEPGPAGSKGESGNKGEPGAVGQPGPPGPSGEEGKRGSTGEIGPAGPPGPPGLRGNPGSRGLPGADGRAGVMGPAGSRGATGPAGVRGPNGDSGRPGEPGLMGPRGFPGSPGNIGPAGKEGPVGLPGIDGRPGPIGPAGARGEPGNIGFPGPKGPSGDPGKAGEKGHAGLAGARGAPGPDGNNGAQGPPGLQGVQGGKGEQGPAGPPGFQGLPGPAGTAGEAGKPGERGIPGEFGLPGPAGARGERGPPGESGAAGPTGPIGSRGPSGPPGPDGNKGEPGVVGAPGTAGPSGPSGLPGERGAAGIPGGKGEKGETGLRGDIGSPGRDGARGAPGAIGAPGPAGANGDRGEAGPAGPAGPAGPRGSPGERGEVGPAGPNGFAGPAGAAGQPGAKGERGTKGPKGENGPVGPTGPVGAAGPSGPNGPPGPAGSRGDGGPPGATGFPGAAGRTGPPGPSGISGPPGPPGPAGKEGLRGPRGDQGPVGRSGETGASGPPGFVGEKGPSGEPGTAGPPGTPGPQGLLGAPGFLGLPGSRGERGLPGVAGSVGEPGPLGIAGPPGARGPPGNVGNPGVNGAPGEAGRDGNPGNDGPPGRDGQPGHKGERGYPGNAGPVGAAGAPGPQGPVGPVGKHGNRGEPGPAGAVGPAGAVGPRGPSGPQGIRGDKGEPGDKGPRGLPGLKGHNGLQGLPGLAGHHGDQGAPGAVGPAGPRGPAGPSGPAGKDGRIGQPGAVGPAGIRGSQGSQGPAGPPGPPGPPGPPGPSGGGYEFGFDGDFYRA

IC50 [nM]	Substance
2.5	Antibody (anti-Fc) induced oligomers of DDR1-Fc (from UniProt Q08345 21-417) (complex)
7.85	Fc-tagged extracellular domain of human DDR1 (dimeric DDR1-Fc) (from UniProt Q08345 21-417) (Fc fusion)
